The record followed here is the supplement of paper PMC7877785.

± gives the uncertainty stated by the source.

This data set is described as follows: self-splicing fitness, log relative to wild type (ln ratio); higher = more splicing; Tetrahymena group I intron in knt gene, E. coli kanamycin selection, DiMSum; sequences stand for … in CUCUCU…GGAGGGAAAAGUUAUCAGGCAUGCACCUGGUAGCUAGUCUUUAAACCAAUAGAUUGCAUCGGUUUAAAAGGCAAGACCGUCAAAUUGCGGGAAAGGGGUCAACAGCCGUUCAGUACCAAGUCUCAGGGGAAACUUUGAGAUGGCCUUGCAAAGGGUAUGGUAAUAAGCUGACGGACAUGGUCCUAACCACGCAGCCAAGUCCUAAGUCAACAGAUCUUCUGUUGAUAUGGAUGCAGUUCACAGACUAAAUGUCGGUCGGGGAAGAUGUAUUCUUCUCAUAAGAUAUAGUCGGACCUCUCCUUAAUGGGAGCUAGCGGAUGAAGUGAUGCAACACUGGAGCCGCUGGGAACUAAUUUGUAUGCGAAAGUAUAUUGAUUAGUUUUGGAGUACUCGUGGUCG
An outline of the steps:
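A randomised library covering all eight P1ex-region intron nucleotides was built with the intron in the knt kanamycin-resistance gene on pET-22b(+) and held in E. coli BL21(DE3). Cells were grown overnight at 37°C or 30°C on LB agar, with or without 25 μg/mL kanamycin, plus 100 μg/mL carbenicillin, 50 μM IPTG and 0.2% rhamnose, and pooled colonies were amplicon-sequenced on an Illumina HiSeq 2500. DiMSum fitness is the error-weighted combination of wild-type-normalised replicate fold changes, kanamycin versus none.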

UGAUAGCAAUAUUACGAUGA: the “self-splicing fitness (ln)” value was -0.925 ± 0.15 (30 °C) and -0.791 ± 0.12 (37 °C). Take AUGUAGCAAUAUUACGGCAU: the “self-splicing fitness (ln)” value (30 °C) was -1.88 ± 0.12 and the “self-splicing fitness (ln)” value (37 °C) was -1.69 ± 0.16. Consider GGGCAGCAAUAUUACGCUGU, for which the “self-splicing fitness (ln)” value (30 °C) was -2.65 ± 0.29 and the “self-splicing fitness (ln)” value (37 °C) is -1.21 ± 0.21. In the case of UCGAAGCAAUAUUACGGGUA, the “self-splicing fitness (ln)” value (30 °C) was -0.839 ± 0.062 and the “self-splicing fitness (ln)” value (37 °C) is -0.123 ± 0.068. In the case of AGACAGCAAUAUUACGCUGG, the “self-splicing fitness (ln)” value reads like this: (30 °C) -3.98 ± 0.31; (37 °C) -3.5 ± 0.3. In the same order, the values of CUCCAGCAAUAUUACGACGA are -3.77 ± 0.26 and -2.5 ± 0.18.

In the case of GACCAGCAAUAUUACGCCUG, the “self-splicing fitness (ln)” value is -2.16 ± 0.11 (30 °C) and -0.614 ± 0.12 (37 °C).

For GUAGAGCAAUAUUACGAGAC, for the setting “30 °C”, the “self-splicing fitness (ln)” value was -3.02 ± 0.42. In the case of AAUCAGCAAUAUUACGUUUA, the “self-splicing fitness (ln)” value reads like this: (30 °C) -0.652 ± 0.045; (37 °C) -0.106 ± 0.06. As to GUACAGCAAUAUUACGGCUA, the “self-splicing fitness (ln)” value is, setting by setting: (30 °C) 0.707 ± 0.15; (37 °C) 0.282 ± 0.12. With AUAUAGCAAUAUUACGAAGC, the “self-splicing fitness (ln)” value (30 °C) was -2.96 ± 0.31. On to GCCGAGCAAUAUUACGGCAU, for which the “self-splicing fitness (ln)” value is, setting by setting: (30 °C) -4.31 ± 0.46; (37 °C) -3.06 ± 0.35.

As to GAUUAGCAAUAUUACGGCCU, the “self-splicing fitness (ln)” value reads like this: (30 °C) -1.39 ± 0.12; (37 °C) -0.323 ± 0.098.

AGCGAGCAAUAUUACGCACA: the “self-splicing fitness (ln)” value (30 °C) was -2.76 ± 0.29 and the “self-splicing fitness (ln)” value (37 °C) was -1.06 ± 0.18. In the case of AGCGAGCAAUAUUACGGUAC, the “self-splicing fitness (ln)” value (30 °C) is -3.58 ± 0.36. UCCGAGCAAUAUUACGUAGU: the “self-splicing fitness (ln)” value is -2.97 ± 0.16 (30 °C) and -2.71 ± 0.18 (37 °C). Turning to GAAAAGCAAUAUUACGUCCU, the “self-splicing fitness (ln)” value by setting is: (30 °C) -0.216 ± 0.089; (37 °C) 0.514 ± 0.12. Regarding UCAAAGCAAUAUUACGAUCA, the “self-splicing fitness (ln)” value (30 °C) was -0.91 ± 0.12 and the “self-splicing fitness (ln)” value (37 °C) is -0.719 ± 0.11. For the sequence ACCAAGCAAUAUUACGGACA, the “self-splicing fitness (ln)” value (30 °C) is -0.841 ± 0.068 and the “self-splicing fitness (ln)” value (37 °C) was -0.38 ± 0.072. In the same order, the values of CCGGAGCAAUAUUACGUGGG are -3.39 ± 0.31 and -2.78 ± 0.38.

Regarding AGGCAGCAAUAUUACGGAAA, the “self-splicing fitness (ln)” value runs as follows: (30 °C) -2.91 ± 0.48; (37 °C) -2.14 ± 0.24. Regarding CUUUAGCAAUAUUACGGCGG, the “self-splicing fitness (ln)” value reads like this: (30 °C) -0.763 ± 0.093; (37 °C) -0.528 ± 0.12. In the case of UCUUAGCAAUAUUACGGAGU, the “self-splicing fitness (ln)” value is -3.29 ± 0.13 (30 °C) and -2.28 ± 0.11 (37 °C).

For the sequence CGCUAGCAAUAUUACGAGGU, the “self-splicing fitness (ln)” value is, setting by setting: (30 °C) -3.83 ± 0.31; (37 °C) -2.58 ± 0.23.

Regarding CAGCAGCAAUAUUACGCGCC, the “self-splicing fitness (ln)” value is, setting by setting: (30 °C) -1.71 ± 0.25; (37 °C) -0.362 ± 0.22. For AGGCAGCAAUAUUACGAUAC, the “self-splicing fitness (ln)” value by setting is: (30 °C) -2.06 ± 0.27; (37 °C) -1.42 ± 0.26. As for CGAAAGCAAUAUUACGCAAC, the “self-splicing fitness (ln)” value is -2.4 ± 0.18 (30 °C) and -2.39 ± 0.35 (37 °C). In the case of UUUCAGCAAUAUUACGUGCG, the “self-splicing fitness (ln)” value by setting is: (30 °C) -1.27 ± 0.12; (37 °C) 0.0636 ± 0.11. Turning to AUAGAGCAAUAUUACGGCAA, the “self-splicing fitness (ln)” value is, setting by setting: (30 °C) -1.97 ± 0.21; (37 °C) -0.382 ± 0.17.

Take CGCGAGCAAUAUUACGGAUU: the “self-splicing fitness (ln)” value is, setting by setting: (30 °C) -3.12 ± 0.17; (37 °C) -2.51 ± 0.25.

Turning to GCCAAGCAAUAUUACGACGC, the “self-splicing fitness (ln)” value is, setting by setting: (30 °C) -0.669 ± 0.11; (37 °C) 0.3 ± 0.14. In the same order, the values of CGAAAGCAAUAUUACGUGAG are -0.204 ± 0.048 and -0.102 ± 0.071. Regarding CUCUAGCAAUAUUACGUAGC, the “self-splicing fitness (ln)” value is, setting by setting: (30 °C) -3.51 ± 0.37; (37 °C) -3.53 ± 0.46. For GCAGAGCAAUAUUACGUAUG, the “self-splicing fitness (ln)” value was -2.86 ± 0.35 (30 °C) and -1.4 ± 0.42 (37 °C). Regarding AAUCAGCAAUAUUACGUCGA, the “self-splicing fitness (ln)” value (30 °C) is -0.548 ± 0.095 and the “self-splicing fitness (ln)” value (37 °C) worked out at 0.0423 ± 0.1. As for GCAAAGCAAUAUUACGCGUU, the “self-splicing fitness (ln)” value reads like this: (30 °C) -1.96 ± 0.13; (37 °C) -2.03 ± 0.2. In the case of AGUCAGCAAUAUUACGAGUG, the “self-splicing fitness (ln)” value is, setting by setting: (30 °C) -2.14 ± 0.079; (37 °C) -0.966 ± 0.095.

For UCAAAGCAAUAUUACGCGGU, the “self-splicing fitness (ln)” value is, setting by setting: (30 °C) -2.75 ± 0.14; (37 °C) -2.97 ± 0.16. Consider UGGGAGCAAUAUUACGCAAA, for which, where the note is “37 °C”, the “self-splicing fitness (ln)” value is -2.43 ± 0.45.
